Source: paper PMC7239899

System: RpsA WT (Mycobacterium tuberculosis H37Rv)
Experiment: MST
Conditions: MST: PBS-T/MST buffer with 0.1% Tween 20, 15 min at room temperature, 50 nM RpsA, tmRNA dilution series from 4.1 uM; EMSA buffer not given in material

With tmRNA the Kd was 58.1 nM.
